experiment: soluble on expression in E. coli; label from the status in PepcDB or PDB records

Sequence | soluble on expression in E. coli
MSLFFDKVIRLNIGGKRFDTHKSTLMKFDGYFKKFLQTPGSSLVDPIFVDRSPTYFDIVLNFMRKGRADLPETLKDLKMLLGEAEYYELTELCDDCKREISRLDIGIESEPFYEIIPEPSVVARNNNNTIPNNVVEVGS | soluble
MSLFMPPVFPAHWHVSQPVLIADTFSSLVWKVSLPDGTPAIVKGLKPIEDIADELRGADYLVWRNGRGAVRLLGRENNLMLLEYAGERMLSHIVAEHGDYQATEIAAELMAKLYAASEEPLPSALLPIRDRFAALFQRARDDQNAGCQTDYVHAAIIADQMMSNASELRGLHGDLHHENIMFSSRGWLVIDPVGLVGEVGFGAANMFYDPADRDDLCLDPRRIAQMADAFSRALDVDPRRLLDQAYAYGCLSAAWNADGEEEQRDLAIAAAIKQVRQTSYEGHHHHHH | soluble
MSLFQVPDSEGGRAGSRAMKPPGGESSNLFGSPEEATPSSRPNRMASNIFGPTEEPQNIPKRTNPPGGKGSGIFDESTPVQTRQHLNPPGGKTSDIFGSPVTATSRLAHPNKPKDHVFLCEGEEPKSDLKAARSIPAGAEPGEKGSARKAGPAKEQEPMPTVDSHEPRLGPRPRSHNKVLNPPGGKSSISFYEGHHHHHH | soluble
MSLFRVGRKIARSIHKAITSEDSVDVSELDGVRSLHLGSDTIQSSMRIKDPYALELRYSRGMMVYLLFQKQPRDLVVLGLGGGSIPKYVYHHLPQVKTRVVEINPRIIEVARSHFFTPENDERFEIIEGDAAAFLRDNPATTSMLMMDAFGSNGLPPDLCSQDFFDSCFEALTLDGMCAINLWGSDKHYDVYLQRIETSFHGRILVMPTGRPGNVVVFGFKRAPNDLRWSTLRVRAKALEAEHKIEFLEFVERLREHNPSTSNRLLLESEGHHHHHH | soluble
MSLFYANMKEFELIKLVERLFGDEDVITPAGKHDAAYVKIGNRLIVLTCDTVNEKSDFPPYMLPEEMGWMAIAVTLSDVAACGARPLYFLSSISLKSIEFFEDILLGIKRCADRFGVKVVGGDIDFSEITTIAGFAIGEARRHITRRGAKVGEGVFITDLPGKAQLCLEMLERGAKREELPYAEKLYTPVPRIEEGMRIARYASAMTDVSDSLAVSLHQISQSSNVKIVLDNIVLSHLSPAENALELFLYGGGDFELVYTAKSSDDGIRIGRVERGKGVFAEIDGKTFEVEFRGYSHFEGHHHHHH | soluble
MSLGAWPTAPITIVVPFAAGQTGDIIARLLGKELAERLKQPFVVDNKGGGGGRIGTAFVAKAKPDGYTLLMTSTGPYAIAPALYPRTMQYDPVRDFTGIAETATTPQIIAVSPKSGINTFADLVKQAKKSDMSYGSAGNGSTQHLTMELLKKELNFPLVHVPFKGSSESKTQVISGMIPVTSDSLPAIYTNIKSGQMKAIAVVDKQRSAYLPDVPTLAESGFPSLSTVAFFGLVAPKNTPKEVVNLLNKNLTEIYRTPDFQQKMKELAMTPPAEKTAEQFTAYLTEEVARWKKIVQDSNVKVEEGHHHHHH | soluble
MSLGDKKYVKRLLGSCWDYPFSGSGVGITEREAVLRAFGEYTERFIGMYYQFIARDKMIFATYRDLDKMGLNALSPHSIQLFHKRQYQQKDFPYSKFCEDSLIKWMPGKSLITNEEVYVPASFVLTPYIPERGENLISPSVTTGSAAHSNLTQAIINGIYEVIERDTARIYWYGNLRSTKLKVDNKDIKDFIDFIKNKKDIEVIITYMENDLNIPTFMASIIIGKNNRKSVVTGLSSNINPINGLKKAITEAFHTYLWKLLTQPSPKQQLENFTDHVALYLDPKMYIHFIDFINSNEELSLQSLILASAVYSFDSAERHLNMLIRLLKNKVLDLIVVDITPEILRKTGIHVVKVIIPPLLSILAGHIQYLGDKRLYNEGHHHHHH | not soluble
MSLGDKPLQTVLHDEHYGGLDFSLGDSKYSGELEYNKSYMVNFSVNLPAEGSVKVAKAYVYWVWSKKDLEGIYPQFNASIINSETTAPLPKGHMYTDTKGFVSRYDYFSGMNTYDLSGKISKSGNYSISLVNTDKNGSTFCVQGIGLLLVYEDPKSPAIEYWINEGCDMLYADYGITPEVATTTTYFKGDIDPDNVTDARLITVSPSGGYSSGREARNKLFFNEETRSIPVLGDIVQLLFGSGKVWENVYQTNETVQIALDEKPVADYLEPTENFASIQDNGDYLLATNAILVLKFKGPESSETKGSEGHHHHHH | soluble
MSLGEEAAGEGGEAEKTITINVGLLVDETGPTSDVGKGYSLGAELAFKYFNEKGIYTKDGVRVNINYIKRDYAYNPTTAEEYYREFRDRYGVIAIIGWGTADTEKLSDQVDTDKITYISASYSAKLLVKPFNFYPAPDYSTQACSGLAFLASEFGQGKLALAYDSKVAYSRSPIGAIKKAAPSLGLQVVGDYDLPLRATEADAERIAREMLAADPDYVWCGNTISSCSLLGRAMAKVGLDAFLLTNVWGFDERSPQLIGEGGYGKVFGISPFIYPMFGQDVEGIQTIFEAARMNGVSEDQINLRVVQGFVNVWLLIKAIESVTSQDLQERGGEALKEALEANTFDLGGITADTIDYEPGFHLAYRKVFIIKLGENGELQLMGKFEAPSQVDCARYTIEEGHHHHHH | soluble
MSLGELLFNRSFENTKPVSESNSWYTCYRGDVKEAKWWHSGYEEPKWYLLADGRKEEKLPLIFNNYWPSAHGKYFLQIDNRKKQIPTLLVQERIYIEKGKGYTVSGLFSSGGYLSEEKYSKESVPVTIAIYKEGDFHTPLSKTELAVNTNQFILYSSSLDATEYEGWCTYTIEVPAGGCVGIDLLSLMADDVIKGWKRESVERIKNELRPRTMRMPGGCFTSLYDWRSGIGPREERPVSYDTWWGCELLNDVGTFELVDLCEAVGAEPFFCVPVMFNNEYSAADWVDFCNNPTNAQRIAYGRTKPLNVKYWELENEPYRRFDAVTYANRCVDFAKAMKAKDPSIKIAVGNYWLFNKKFKEMLEIVGPYVDLITNRGGTPEEMRADIVILDAYNKAHGTDIKLCHTEFRAPVTRNEGNTDGLNQKDTGGEETLFNASIRWGFAMNMVEQYIAYQNMGGSFFTANYTNLSDGWGECLINTPKEGTYLNAPGVAFALLNSLDIAYPQIIEQEKENQDIVIQAAWNKRRDKLTLVVLNFSQNTQPCKIDFSQIKKSFRVRKGMKIAPQSDLSFNTLQHPEEVKVESFVPSTGKMMKLGLPGNSLIVVELQAERSHGIHVNASTGNEGHHHHHH | not soluble
MSLGENVEFKEFLGNFHLKEGRFRQLACQMNHRIIMGKGVALYVVGVSDSGEIKGIDENKFSETIEVLKKLATEIEAEVSSVERHEVNGGYVGLVEIRKTKAKEHILVGTAGHVDHGKSTLVGCLITGKPDDGDGATRVYLDVLKHEIERGLSAEISFAVFGYKDGKVLRMKNPLSKAEKAMVVETADKLVSFVDTVGHEPWLRTTIRGLLGQKVDYGLLVVAANDGVMRTTKEHLGIMLAMDLPVIVAVTKADMVDDARLSEVLQEISATLRRVGRVPTVLKSRHDARKAAEMVKSNKLLVPVVITSAVTLEGYDILEEIFLHLPKRYTADEDFLMYIDKIYSVTGVGTVVSGSVKSGELAEGDEVYIGPFQDGSFRRVRIQSIEMHHYRIDRAKAGDIIGAAVKGVRYDELRRGMVISRKEPRAVWEFDAEIYVFTHPTLISVGYEPVMHVETISETVTFVEMDKEYLKPGDRGIVRMKFKYHPHFVYEGQKFIFREGRSKGMGEIIRVFEGHHHHHH | soluble
MSLGETYAPQCAGPAPEPRTLPRTLPDGACDCHFHVFGDENGQPFSPHRSYTPPPAPLEAFQRVQKTLGLSRGVIVQPSVYGADNSTTLAALKEAGSAFRGVVVIDADTDTETLWAMHRLGVRGVRVNLIFKSGVEVSDVAALAEKVAPLGWHLQLLIDITEFADLYETVASLPVAVVIDHMGHMPTSCGLGHPGFTDLLRLLKEGRVWVKLSGAYRFTASKDFPYDDVTPYARALIEANPNRLLWASDWPHPCIPVPMPNDASLLEMLFNWVENDDALIKQILVDNPAKLYGEGHHHHHH | not soluble
MSLGFKEYYRAFPTYTKIESKEYKGRVETLGPILIKYMNKNRGKVLDLACGVGGFSFFLEDLGFDVVGLDNNPEMIEAAKRYAEKRSSKVNFVVGDAKNLPFENNSFDYVIFIDSIFHFTPSELNQVFKEVKRVIKPEGRFLIYFTDLRELLPNLKERLVIGEKYWVNRITTDTSERIATIEFKSEDDEFRVEFNIWGKTGVELLAKLYFTKEAEEKVGGYSYLIVYNPKEGHHHHHH | soluble
MSLGIAGTNTVRLQVYTNLKTFKSGDEISDGWVAKFHTDGDYIKWFAIENEDSLEGKEIKLFDTYKVDYTGTIKEKEKGKVTYAVLKAYVAIDPLERQYKELTLGIGDEIEDTAYSIKDVDVEFEPKETYIPKKLTEPITVLDTEIMEQGLENVDSNLILVGGPVVNKVTAALAEDLGVPTTYDEWKEKFGTGADSGQIIYKEKCSKIGGYGVLLVAGTDREGTRAAAEALLEYISKLEGHHHHHH | soluble
MSLGITGPTFDLTAQPGRANQPDGASVYSWGYGCNPRTVPGFLPSVNPLAGQNCPGMQLPGPTLIVHQGDVVTVTLTNNLPPAAGNTSILFPGFQVCAGTLDPNTGACSGTPTGVQGLLTREAQTGKTVTYTFIATTPGTHAYYSGTQGDLQVEMGLYGALIVLPTASGSVAVPAGCRAVSSLLPDGQPDYRNAAAAYNHSMACYDREYLFQFSEIDPAIHVQAEQQAGLPCAQPAGCMIVRTEPYHPAYFMVNGRSMPDDMDTNYAPQYPSQPYNGNPHMHPGELVLLRIIGTGRWQHPFHEHGNHVRVLARDGNLLLSQGDPSKVAGPLLFTTTTTPGLAMDGIFYWTGRGLNWDVYGHKPGDGSVCIPDANGYYTQDPTAPNYYEWCADHDKPLEAHPFGDVNSGGPVTLPDPNIFSNGAWYGGSPYLGPDATIRAVGATGTTPPTGTIANPPTTEAGFAFMWHSHNEREITTNNIFPGGMMMMMLVDPQAFVINEANEGHHHHHH | not soluble
MSLGLINPDFQTLPELFTSVFSHFKGQPDKAPIARKINGAYSPISYDSLAEDCRHFAAYLKERGIEPGDRVAILSENRPGWYLADIAILSLGATDVPLYPSLPPNQIEYILNNCSAKGIIVSNMLQLGKILSIWPKLPELNMVIVMNKLDEPVEDVIDLSQAKTEGKKVLEAKPWLLDGIKSNPDDVATLIYTSGTTGLPKGVMLTHRNICENVKSCSTVIRIDQTDSSLSFLPLSHAYERTGGYYLMFACGARINLAESVETISLNISEAKPTIIFTVPRLFDRMKASILKSVTSEGGVKEKIFFWAVSTGEKYHKQLATGKVSPLLAVQHNLADKLVYSKIRKKFGGKLRYFVSGGAALPQKTGEFFQSIGITILEGFGLTETSPVTNVNRPEKVKFGTVGLPVKNVEVKIAPDGEIMLKGPNIMKGYWKDEAASAEVLRDGWLYTGDIGEVDSEGYLKITDRKKHIIVTSGGKNIAPLQIENLILDSPYVDQAMIVGEKRPFLIALIVPDFLKLRDFAAEHQIKASSTKELINTKEVIEVYEKLLKSISRQLATHEKVRKFLLLEEPFSIENGMMTPTLKLKRKEITTKFSAEIDNLYNTLNMVYNTEGHHHHHH | soluble
MSLGMDEKSVAIVFPHHLLEDHPAAGKTSGFILVEDQLFFGDPVFGLRFHKNKLVLHRASMRYYHDHLKSRGLKAEYIQYSPDPHMGYLRDHLEGYDRVYTLELLDHELEARMKKLSMELGLEITEIEAPFIFRRNLMDGYFRDGRFLLRSFYIRERKRLSILMENSRPAGGKWTFDTENRKRMPPDLQVPAPVKLPENEYVQEAKEYVSEKFPDNPGSMDRFNYPEGHHHHHH | soluble

— the DeepSol protein solubility set
